The text below walks through data of PMC9325726.

The target in this assay is T1, wild-type AM0627^A21-E506 (Akkermansia muciniphila) (UniProt B2UPI7).
T1 sequence: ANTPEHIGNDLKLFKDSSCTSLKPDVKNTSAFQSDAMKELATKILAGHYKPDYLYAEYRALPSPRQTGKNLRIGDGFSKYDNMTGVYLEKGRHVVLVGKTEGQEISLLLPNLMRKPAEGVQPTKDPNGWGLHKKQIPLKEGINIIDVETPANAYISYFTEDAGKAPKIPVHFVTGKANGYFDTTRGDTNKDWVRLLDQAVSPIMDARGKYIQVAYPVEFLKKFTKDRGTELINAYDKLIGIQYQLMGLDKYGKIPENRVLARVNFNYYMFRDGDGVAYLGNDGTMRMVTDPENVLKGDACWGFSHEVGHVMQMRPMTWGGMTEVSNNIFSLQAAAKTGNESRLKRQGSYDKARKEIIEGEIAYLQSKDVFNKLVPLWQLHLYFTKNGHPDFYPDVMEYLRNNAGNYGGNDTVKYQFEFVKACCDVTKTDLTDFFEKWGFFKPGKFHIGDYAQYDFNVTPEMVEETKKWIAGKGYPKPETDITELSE

Where no end group is shown, it is not given here. The star is where a group is joined. αGalNAc = CC(=O)N[C@@H]1[C@@H](O)[C@@H](O)[C@@H](CO)O[C@@H]1*

TEAQT(αGalNAc)T(αGalNAc)PPPA-NH2 [P2, bis-Tn glycopeptide]: the cleavage of P2 (500 μM) by 0.4 μM enzyme at 37 °C, MALDI-TOF time course, printed for 5 and 15 min is 35%; the specific activity with P2 (500 μM), from the MALDI-TOF time course was 1.2 U/mg.
